Laboratory results taken from the nanobody polyreactivity screen of Harvey et al. (2022).

Test: yeast display, Sf9 membrane polyspecificity reagent, FACS + sequencing; frameworks hold sequencing errors
How it was run: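 Using colony PCR, genes from sorted yeast display clones were amplified, then sequenced on MiSeq at 2 × 250 and filtered by CDR length. The clones had been stained with 10% biotinylated, detergent-solubilized Sf9 membrane reagent for 1 hour at 4 °C and sorted by FACS into low and high (top ~1%) gates on anti-HA and streptavidin fluorescence. Polyreactivity labels come from the gate of origin.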

Row | Sequence | polyreactivity (PSR sort gate)
1 | QVQLVESVGGLVQAGGSLRLSCAASGITYYGYAMGWYRQAPGKERELVAAISKSGGSTHYADSVKGRFTISRDNAKNTVYLQMNSLKPEDTAVYYCNSRSLVFPITFWEYDYWGQGTQVTVSS | low polyreactivity
2 | QVQVVESGGGLVQAGGSLRLSCAASGSISSWYALGWYRPAAGYERELVADISSGVNTYYADSVKGRFTISRDNAKNTVYLQMNSLKTEDTAVYYCNAESLTFADPFYNYTYDYWGQGTQVTVSS | low polyreactivity
3 | QVQLVESGGGLVQAGGSLRLSCAASGLIFASYAMGWYRQAPGKERELVAAISWSGGSTYYADSVKGRFTISRDNAKNTVYLQMNSLKPEDTAVYYCAARKLFIPKYYYWGQGTQVTVSS | high polyreactivity
4 | QVQLVESGGGLVQAGGSLRLSCAASGYTFSFYAMGWYRQATGKERELVAAISRSGGSTYYADSVKGRFTISRDNAKNTVYLQMNSLKPEDTAVYYCAARWPGAYHEYGYWGQGTQVTVSS | high polyreactivity
5 | QVQLQESGGGLVQAGGSLRLGCAASGNISDAGYMGWYRQAPGKEREFVAAIAAGSTTNYADSVKGRFTISRDNAKNTVYLQMNSLKPEDTAVFYCAVASYARVQFEYWGQGTQVTVNS | low polyreactivity
6 | QVQLVESGGGLVQAGGSLRLSCAASGRLFGAYGMGWYRQAPRKERELVAAISNGGRTSYADSVKGRFTISRDNAKNTVYLQMNSLKPEDTAVYYCAAVYWPWYGAYDYWGQGTQVTVSS | high polyreactivity
7 | QVHLVESGAGLVQAGGSLRLSCAASGSTFAPNAMGWYRQAPGKERELVAAISSGGDSTNYADSVKGRFTISRDNAKNTVYLQMNSLKPEDTEVYYCAHGYWFVAYDYWGEGTQVTVSS | low polyreactivity
8 | QVQLVESGGGLVQAGGSLRLTCAASGSIFGAKAIGWYIQAPGKERELVAALTWSDTSTYYADSVKGRFTISRDNAKNTVYLQMNSLKPEDTAVYYCAAEYEWVTWGWGYYYWGQGTQVTVSS | high polyreactivity
9 | QVQLVESGGGLVQAGVSLRLSCASSGYTYHVYAMGWYRQAPGKERELVAAISTGDDTTFYADSVKVRFTISRDNAKNTVYLQMNSLKPEDTAVYYCAAAYGTPYGGYDYWGQGTQVTVSS | low polyreactivity
10 | QVQLVESGGGLVQAGGSLRLSCAASGSTFVYYTMGCYRPAPGKETELVAAINGSGGSTYYADSVKRRFTISRDNAKNTVYLQMNSLKPEDTAVYYCDAVYWDGDDYWGQGTQVTVSS | high polyreactivity
11 | QVQLVESGGGLVQAGGSLRLSCAASGSTLYYYAMGWYRQAPGKERELVASITGSGGNTYYADSVKGRFTISRDNAKNTVYLQMNSLKPEDTAVYYCAKRHFYRHGAYGYWGQGTQVTVSS | high polyreactivity
12 | QVQLVESGGGLVQAGGSLRLSCAASGSTFAGYAMGWYRQAPGKERELVAAISRRGGSTYYADSVKGRFTISRDNAKNTVYLQMNSLKPEDTAVYYCNRDKYLRDPDYDYWGQGTQVTVSS | low polyreactivity
13 | QVQLVESGGGLVQAGGSLRLSCAASGRIFGHYAMGWYRQAPGKEMELVAAITIGGSTYYADSVKGRFTISRDNAKNTVYLQMNSLKPEDTAVYYCAKVGSNYRGRLGYWGQGTQVTVSS | low polyreactivity
14 | QVQLVESGGGLVQAGGSLRLSCAASGGTFYANAMGWYRQAPGKERELVATITSSSGSTSYADSVKGRFTISRDNAKNTVYLQMNSLKPEDTAVYYCAKDSHAQGPYRYKHYHHTGDYWGQGTQVTVSS | low polyreactivity
15 | QVQLVESGGGLVQAGGSLRLSCDASGGIFYGYAMGWYRQAPGKERELVAAISDSGGSTYYSDSVKGRFTITRDNAKNNVYLQMNSLKPEDTAVYYCATDAPVGGYVSEGDYWGQGTQVTVSS | low polyreactivity
16 | QVQLVESGGGLVQAGGSLRLSCAASGRIFGAYAMGWYRQAPGKERELVAAITSRGGNTYYADSVKGRFTISRDNAKNTVDLQMNSLKPEDTAVYYCAARHDKRRQYYFGQSAFDYWGQGTQVTVSS | low polyreactivity
17 | QVQLVESGGGLVQAGGSLRLSSAASGYFNFFYAMGRYRQAPGKERELVASITYRGGSTYYADSVKGRFTLSRDNSKNTVYLQMNRLKPEDTAVYYCNVDGGGPLGPQGFPFDYWGQGTQVTVSS | low polyreactivity
18 | QVQLVESGGGLVQAGGSLRLSCAASGSIFGYYVMGWYRQAPGKERELVAAISRSGGSTYYADSVKGRFTISRDHAKNTVYLQMNSLKPEDTAVYYCAARGTAERDYWGQGTQVTVSS | high polyreactivity
19 | QVQLVESGGGLVQAGGSLRLSCAASGRIFSPYAMGWYRQAPGKERELVAAINSIGGSTYYADSVKGRFTISRDNAKNTVYLQMNSLKPEDTAVYYCAVKWYRLGLIRWGGYWGQGTQVTVSS | high polyreactivity
20 | QVQLVETGGGLVQAGGSLRLSCAASGFTFGSNAMGWYRQAPGKEREFVAAITYSGGGTYADSVKGRFTISRDNAKHTVDLQMNSLKPEDTAVYYCATDAYRWHYWNFGFGYWGQGTQVTVSS | high polyreactivity
21 | QVQLGESGGVLVQAGGSLSLSCAASGNIFGRYAMGWYRQAPGKEWELVAANTRSAGSTYYADSVKGRFTISRDNEKTTVYFQMNSLKPEDTAVYYCAAAHWGYAYRRYGYGGQGTQVTVSS | high polyreactivity
22 | QVQLVESGGGLVQAGGSLRLSCAASGSTFYYYTMGWYRQAPGKERELVAAISGSGSRTYYADSVKGRFTISRDNAKNTVYLQMNSLNPEDTGVYYCAAKRSYPYGSGYWGQGTQVTVSS | high polyreactivity

Row | Sequence | polyreactivity (PSR sort gate)
23 | QVQLVESGGGLVQAGGSLRLSCAASGSTCSVNAMGWYRQAPGKERELVAAITYSGGSTYYADSVKGRFTISRDNAKNTVYLQMNSLKPEDTAVYYCNRDTRYYWKRYGYWGQGTQVTVSS | high polyreactivity
24 | QVQLVESGGGLVQAGGSLRVSCAASGSIFSYYAMGWYRQAPGKEREFVAAISWSGGSTYYADSVKGRFTISRDNAKNTVYLQMNSLKPEDTAVYYCAAELSLSWLVPDVPYYYWGQGTQVTVSS | low polyreactivity
25 | QVQLVESGGGLVQAGGSLRLSCASSGRISASYAMGWYRQAPGKERELVAAITGSGGSTYYADSVKGRFTISRDNAKNTVYLQMNSLKPEDTAVYYCAAEPGLSVFFEFDSWGQGTQVTVSS | low polyreactivity
26 | QVQLVESGGGLVQAGGSLRLSCAASGRIFYNYAMGWYRQAPGKERELVAAISGSGGSTYYADSVKGRFTISRDNAKNTVYLQMNSLKPEDTAVYYCAKDYRWDRKFDYWGQGTQVTVSS | low polyreactivity
27 | QVQLVESGGGLVQAGGSLRLSCAASGSTFSGYAMGWYRQAPGKERELVAAITSGGGTYYADSVKGRFTISRDNAKNTVYLQMNSLKPEDTAVYYCAADGIARAYVLLDAYDFLYDYWGQGTQVTVSS | low polyreactivity
28 | QVQLVESGGGLVQAGGSLRIRCAATGFIFLDYAMGWYRQAPGKERELVAAISSRGARTYYADSVKGRFTISRDNAKNTVYLQMNSLKPEDTAVYYCAARGPLDRYGYWGQGTQVTVSS | high polyreactivity
29 | QVQLVESGGGLVQAGGSLRLSCAASGSLFKYYAMGWYRQAPGKERELVAAITIGGNTNYADSVKGRFTISRDNAKNTVYLQMNSLKPEDTAVYYCATGGYYSAIVYGGYDYWGQGTQVTVSS | low polyreactivity
30 | QVQLVESGGGLVQAGGSLRLSCAASGMTFWSYAMGWYRQAPGKDRELVAAITIGGTTYYADSVKGRFTISRDNAKNTVYLQMNSLKPEDTAVYYCAVDSTDQAPPTYDYWGQGTQVTVSS | low polyreactivity
31 | QVQLVESGGGLVQAGGSLRLSCAASASIFPRNTMGWYRPAPGKERELVAAISRSGGSTYYADSVKGRFTISRDNAKNTVYLQMNSLKPEDTAVYYCAVSGGTSRRYYYWGQGTQVTVSS | high polyreactivity
32 | QVQLVESGGGLVQAGGSLRLRCAASGSTFGGYAMGWYRQAPGKERELVAAIANGDRTNYADSVKGRFIISRDNAKNTVYLQMNSLKPEDTAVYYCNKDGPSYSSYDNWGQGTQVTVSS | low polyreactivity
33 | QVQLVESGGGLVQAGGSLRLSCAASGYIFKYNAMGWYRQAPGKERELVATIRGGGSTNYADSVKGRFTISRDNAKNTVYLQMNSLKPEDTAVYYCAAVQRYEYGYWGQGTQVTVSS | high polyreactivity
34 | QVQLVESGGGLGQAGGSLRLSCAASGSIFRGYAMGWYRQAPGKERELVAAISWSGGSTYYADSVKGRFTISRDNAKNTVYLQMNSLKPEDTAVYYCAADRDVFGYWYYYWGQGTQVTVSS | high polyreactivity
35 | QVQREESGGGLVQAGGSLRLSCAASGFIFDNNAMGWYRQAPGKERELVAAISSADSTNYADSEKGRFSISRDNAKNTVYLQMNSLKPEDTAVYSCNRSQGGEKGWFHYDSWGQGTQVTVSS | low polyreactivity
36 | QVHLVESGGGLVLAGGSLRLSCAASGSTFGINAMGWYRQAPGKEREFVASISWSTGTTYYADSVKGRFTISRDNAKNTVYLQMNSLKPEDTAVYSCAAVDYYWGYEQWYDYWGQGTQVTVSS | high polyreactivity
37 | QVQLVESGGGLVQAGGSLRLSCAASGRISVNYAMGWYRQAPGKERELVAGITSRGGSTYYADSVKGRFTISRDNAKNTVYLQMNSLKPEDTAVYYCAARWGGLWYYYWGQGTQVTVSS | high polyreactivity
38 | QGQLVESGGGLVQAGGSLRLSCAASGISFSFYAMGWYRQAPGKERELVADITLSGGRTYYADSVKGRFTISRDNAKNTVYLQMNSLKPEDTAVYYCNADTYERVDYWGQGTQVTVSS | high polyreactivity
39 | HSAVGLVQAGVRHPLSCAASGRMFKYNAMRWYRQAPGKERELVAAISYSGGSTYYADSVKGRFTISRDNEMYTVYLQMNSLKPEDTAVYYCAKATSTREPKYGYWGQGTHVTVSS | high polyreactivity
40 | QVQLVESGGGLVQAGGSLRLSCAASGYIFNKYVMGWYRQAPGKERELVAAISASGGSTYYADSVKGRFTISRDNAKNTVYLQMNSLKPEDTAVYYCAATLYRRMDYWGQGTQVTVSS | high polyreactivity
41 | QVQLVESGGGLVQAGGSLRLSCAASGSTFDYYAMGWYRQAPGKERELVAAISSSGSSTYYADSVKGLFTISRDNAKNTVYLQMNSLKPEDTAVYYCAKGTNYRDDYWGQGTQVTVSS | low polyreactivity
42 | QVQLVESVGGLVQAGGSLRLSCAASRIFRGYAMGRYRQAPGKERELVAAIRRGGSTNYADSVKGRFTISRDNAKNSVYFQMNSLKPEDTEVYYCAADFYYDRDVDYWGQGTQVTVSS | high polyreactivity
43 | QVQLVESGGGLVQAGGSLRLSCAASGRIFLGNAMGWYRQAPWKESELVAAITNGGGSTSYADSVKGRFTISRDNAKNTVYLQMNSLKPEDTAVYYCARGYKKSVQRFEYRGQGTQVTVSS | high polyreactivity
